Experimental data reported in patent US20250042957A1 (Molecular Partners, published 2025).
Residue numbers refer to the chain shown, from its start. Like-named read-outs stand apart in the source and are kept apart here.

Legend:
[1] = target: T1, Aminoglycoside phosphotransferase (APH) (Enterococcus faecalis (Streptococcus …, UniProt P0A3Y5 2-264))
T1 chain: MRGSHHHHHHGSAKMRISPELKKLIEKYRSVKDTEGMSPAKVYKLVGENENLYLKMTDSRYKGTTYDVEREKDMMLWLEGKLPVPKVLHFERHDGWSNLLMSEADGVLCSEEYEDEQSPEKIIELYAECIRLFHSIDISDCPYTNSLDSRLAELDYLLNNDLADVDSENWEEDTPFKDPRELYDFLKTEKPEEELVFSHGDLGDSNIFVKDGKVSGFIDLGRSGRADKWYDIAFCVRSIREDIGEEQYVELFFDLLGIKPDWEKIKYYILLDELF

[2] = target: Maltose binding protein (MBP) (E. coli); test: ELISA on MBP, DARPin titrated
[3] = target: T1, Aminoglycoside phosphotransferase (APH); test: ELISA on APH, DARPin titrated
scCD3εγ [4] = target: T2, scCD3εγ; test: ELISA: plate-bound biotinylated scCD3εγ, His-tagged construct titrated, no VEGF
T2 chain 1: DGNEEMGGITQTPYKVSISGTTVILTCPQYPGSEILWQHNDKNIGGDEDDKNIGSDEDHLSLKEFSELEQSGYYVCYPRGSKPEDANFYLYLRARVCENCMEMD
T2 chain 2: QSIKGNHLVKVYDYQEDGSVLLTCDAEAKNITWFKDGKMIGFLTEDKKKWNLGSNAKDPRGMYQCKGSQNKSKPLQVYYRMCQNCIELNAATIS
Method: (§1) The difference in binding of Switchdrug DARPins to scCD3εγ in presence and absence of VEGF was assessed. […] Said Switchdrug DARPins were mixed with a constant concentration of VEGF (100 nM) and tested for binding to scCD3εγ. […] The difference in EC50 of a construct in presence and absence of VEGF can be referred to as the “activation window”.
(§2) Switchdrug DARPins that were mixed with VEGF were titrated and pre-incubated for 1 day with VEGF in order to establish the thermodynamic equilibrium. These samples were loaded on the ELISA plate, incubated and washed, before the bound Switchdrug DARPins were detected as described above.

scCD3εγ [5] = target: T2, scCD3εγ; test: ELISA: plate-bound biotinylated scCD3εγ, His-tagged construct titrated in presence of 100 nM soluble VEGF
Method: as §1, §2

scCD3εγ [6] = target: T2, scCD3εγ; test: ELISA: plate-bound biotinylated scCD3εγ, His-tagged construct titrated without and with 100 nM soluble VEGF
Method: as §1, §2

VEGF165 = target: T3, VEGF165 (UniProt P15692-4 27-191, biotinylated in the ELISA of Example 4 (site not stated)); test: ELISA: plate-bound biotinylated VEGF165, His-tagged construct titrated, no soluble VEGF, anti-His-HRP detection
T3 construct: also called biotinylated VEGF165; soluble VEGF
T3 sequence (P15692 other isoform, or with tags, fused parts or gaps limits assumed): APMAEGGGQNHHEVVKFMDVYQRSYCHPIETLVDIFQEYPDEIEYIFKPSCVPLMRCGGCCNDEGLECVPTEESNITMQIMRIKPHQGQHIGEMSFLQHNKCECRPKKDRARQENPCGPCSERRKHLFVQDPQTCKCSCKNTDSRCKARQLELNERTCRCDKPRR

scCD3εγ [7] = target: T2, scCD3εγ; test: ELISA: plate-bound biotinylated scCD3εγ, His-tagged construct titrated in presence of 100 nM soluble VEGF
Method: as §1, §2

scCD3εγ [8] = target: T2, scCD3εγ; test: ELISA: plate-bound biotinylated scCD3εγ, His-tagged construct titrated without and with 100 nM soluble VEGF
Method: as §1, §2

scCD3εγ [9] = target: T2, scCD3εγ; test: ELISA: plate-bound biotinylated scCD3εγ, His-tagged construct titrated, no VEGF
Method: as §1, §2

scCD3εγ [10] = target: T2, scCD3εγ; test: ELISA: plate-bound biotinylated scCD3εγ, His-tagged construct titrated in presence of 100 nM soluble VEGF
Method: as §1, §2

scCD3εγ [11] = target: T2, scCD3εγ; test: ELISA: plate-bound biotinylated scCD3εγ, His-tagged construct titrated without and with 100 nM soluble VEGF
Method: as §1, §2

B1: 2-in-1 DARPin 21 (SEQ ID NO: 90) (designed binder)
chain: DLGKKLLEAARAGQDDEVRILMANGADVNANDWFGITPLHLVVNNGHLEIIEVLLKYAADVNASDKSGWTPLHLAAYRGHLEIVEVLLKYGADVNAMDYQGYTPLHLAAEDGHLEIVEVLLKYGADVNAKDKFGKTPLHIAARAGHLEIVEVLLKAGADVNAADNTGTTPLHLAAYSGHLEIVEVLLKHGADVDASDVFGYTPLHLAAYWGHLEIVEVLLKNGADVNAMDSDGMTPLHLAAKWGYLEIVEVLLKHGADVNAQDKFGKTAFDISIDNGNEDLAEILQKAA
[1]
  Kd: 66.9 nM
[2]
  EC50 (read off the curve): ~100 nM
[3]
  EC50 (read off the curve): ~20 nM

B2: 2-in-1 DARPin 22 (SEQ ID NO: 91) (designed binder)
chain: B1 chain with K135R, A144N
[1]
  Kd: 52.6 nM
[3]
  EC50 (read off the curve): ~10 nM

B3: Switchdrug DARPin 18-A (designed binder)
chain: MRGSHHHHHHGSDLGKKLLQAARAGQLDEVRELLKAGADVNAKDQYGRTPLHLAAIKGHLEIVEVLLKAGADVNAKDSLGYTPLHLAAVEGPLEIVEVLLKAGADVNAKDAYGQTPLHIAAAWGHLEIVEVLLKAVADVNAQDKSGKTPADLAARAGHQDIAEVLQKAAGSPTPTPTTPTPTPTTPTPTPTGSDLGQKLLEAAWAGQDDEVRELLKAGADVNAKNSRGWTPLHTAAQTGHLEIFEVLLKAGADVNAKNDKRVTPLHLAAALGHLEIVEVLLKAGADVNARDSWGTTPADLAAKYGHQDIAEVLQKAAGSPTPTPTTPTPTPTTPTPTPTGSDLDKKLLEAARAGQDDEVRILLKAGADVNAKDSTGWTPLHLAAPWGHPEIVEVLLKAGADVNAKDFQGWTPLHLAAAAGHLEIVEVLLKAGADVNAKDVYGWTPLHIAAASGHLEIVEVLLKAGADVNAKDWLGWTPLHLAASHGHLEIVEVLLKAGADVNAQDKSGKTPADLAARAGHQDIAEVLQKAA
notes: also called 2-in-1 DARPin18 in Format A
scCD3εγ [4]
  EC50 (read off the curve): ~200 nM
scCD3εγ [5]
  EC50 (read off the curve): ~90 nM
scCD3εγ [6]
  shift in EC50 upon addition of 100 nM VEGF: ~2 fold
VEGF165
  EC50 (read off the curve): ~90 nM

B4: Switchdrug DARPin 15-3 (designed binder)
chain: MRGSHHHHHHGSDLDKKLLEAARAGQDDEVRILLKAGADVNAKDSTGWTPLHLAAPWGHPEIVEVLLKAGADVNAKDFQGWTPLHLAAAAGHLEIVEVLLKAGADVNAKDWLGWTPLHLAASHGHLEIVEVLLKAGADVNAQDKSGKTPADLAARAGHQDIAEVLQKAAGSPTPTPTTPTPTPTTPTPTPTGSDLGKKLLEAARAGQDDEVRELLKAGADVNAKDKDGYTPLHLAAREGHLEIVEVLLKAGADVNAKDKDGYTPLHLAAREGHLEIVEVLLKAGADVNAQDKSGKTPADLAADAGHEDIAEVLQKAAGSPTPTPTTPTPTPTTPTPTPTGSDLGQKLLEAAWAGQDDEVRELLKAGADVNAKNSRGWTPLHTAAQTGHLEIFEVLLKAGADVNAKNDKRVTPLHLAAALGHLEIVEVLLKAGADVNARDSWGTTPADLAAKYGHQDIAEVLQKAA
notes: also called 2-in-1 DARPin15 in Format 3
scCD3εγ [7]
  EC50 (read off the curve): ~8 nM
scCD3εγ [8]
  shift in EC50 upon addition of 100 nM VEGF: ~54 fold

B5: Switchdrug DARPin 17-3 (designed binder)
chain: B4 chain with D15G, E20Q, D27L, I32E
notes: also called 2-in-1 DARPin17 in Format 3
scCD3εγ [7]
  EC50 (read off the curve): ~3 nM
scCD3εγ [8]
  shift in EC50 upon addition of 100 nM VEGF: ~100 fold

B6: Switchdrug DARPin 17-A (designed binder)
chain: MRGSHHHHHHGSDLGKKLLQAARAGQLDEVRELLKAGADVNAKDQYGRTPLHLAAIKGHLEIVEVLLKAGADVNAKDSLGYTPLHLAAVEGPLEIVEVLLKAGADVNAKDAYGQTPLHIAAAWGHLEIVEVLLKAVADVNAQDKSGKTPADLAARAGHQDIAEVLQKAAGSPTPTPTTPTPTPTTPTPTPTGSDLGQKLLEAAWAGQDDEVRELLKAGADVNAKNSRGWTPLHTAAQTGHLEIFEVLLKAGADVNAKNDKRVTPLHLAAALGHLEIVEVLLKAGADVNARDSWGTTPADLAAKYGHQDIAEVLQKAAGSPTPTPTTPTPTPTTPTPTPTGSDLGKKLLQAARAGQLDEVRELLKAGADVNAKDSTGWTPLHLAAPWGHPEIVEVLLKAGADVNAKDFQGWTPLHLAAAAGHLEIVEVLLKAGADVNAKDWLGWTPLHLAASHGHLEIVEVLLKAGADVNAQDKSGKTPADLAARAGHQDIAEVLQKAA
notes: also called 2-in-1 DARPin17 in Format A
scCD3εγ [6]
  shift in EC50 upon addition of 100 nM VEGF: ~90 fold
VEGF165
  EC50 (read off the curve): ~40 nM

B7: Parent DARPin no 2 (SEQ ID NO: 87) (designed binder)
chain: DLGKKLLEAARAGQDDEVRILMANGADVNANDWFGITPLHLVVNNGHLEIIEVLLKYAADVNASDKSGWTPLHLAAYRGHLEIVEVLLKYGADVNAMDYQGYTPLHLAAEDGHLEIVEVLLKYGADVNAQDKFGKTAFDISIDNGNEDLAEILQKLN
[1]
  Kd: 147 nM

B8: Switchdrug DARPin 15-1 (designed binder)
chain: MRGSHHHHHHGSDLGQKLLEAAWAGQDDEVRELLKAGADVNAKNSRGWTPLHTAAQTGHLEIFEVLLKAGADVNAKNDKRVTPLHLAAALGHLEIVEVLLKAGADVNARDSWGTTPADLAAKYGHQDIAEVLQKAAGSPTPTPTTPTPTPTTPTPTPTGSDLDKKLLEAARAGQDDEVRILLKAGADVNAKDSTGWTPLHLAAPWGHPEIVEVLLKAGADVNAKDFQGWTPLHLAAAAGHLEIVEVLLKAGADVNAKDWLGWTPLHLAASHGHLEIVEVLLKAGADVNAQDKSGKTPADLAARAGHQDIAEVLQKAA
notes: also called 2-in-1 DARPin15 in Format 1
scCD3εγ [9]
  EC50 (read off the curve): ~50 nM
scCD3εγ [10]
  EC50 (read off the curve): ~3 nM
scCD3εγ [11]
  shift in EC50 upon addition of 100 nM VEGF: ~18 fold

B9: Switchdrug DARPin 18-3 (designed binder)
chain: MRGSHHHHHHGSDLDKKLLEAARAGQDDEVRILLKAGADVNAKDSTGWTPLHLAAPWGHPEIVEVLLKAGADVNAKDFQGWTPLHLAAAAGHLEIVEVLLKAGADVNAKDVYGWTPLHIAAASGHLEIVEVLLKAGADVNAKDWLGWTPLHLAASHGHLEIVEVLLKAGADVNAQDKSGKTPADLAARAGHQDIAEVLQKAAGSPTPTPTTPTPTPTTPTPTPTGSDLGKKLLEAARAGQDDEVRELLKAGADVNAKDKDGYTPLHLAAREGHLEIVEVLLKAGADVNAKDKDGYTPLHLAAREGHLEIVEVLLKAGADVNAQDKSGKTPADLAADAGHEDIAEVLQKAAGSPTPTPTTPTPTPTTPTPTPTGSDLGQKLLEAAWAGQDDEVRELLKAGADVNAKNSRGWTPLHTAAQTGHLEIFEVLLKAGADVNAKNDKRVTPLHLAAALGHLEIVEVLLKAGADVNARDSWGTTPADLAAKYGHQDIAEVLQKAA
notes: also called 2-in-1 DARPin18 in Format 3
scCD3εγ [7]
  EC50 (read off the curve): ~90 nM

B10: Switchdrug DARPin 18-1 (designed binder)
chain: MRGSHHHHHHGSDLGQKLLEAAWAGQDDEVRELLKAGADVNAKNSRGWTPLHTAAQTGHLEIFEVLLKAGADVNAKNDKRVTPLHLAAALGHLEIVEVLLKAGADVNARDSWGTTPADLAAKYGHQDIAEVLQKAAGSPTPTPTTPTPTPTTPTPTPTGSDLDKKLLEAARAGQDDEVRILLKAGADVNAKDSTGWTPLHLAAPWGHPEIVEVLLKAGADVNAKDFQGWTPLHLAAAAGHLEIVEVLLKAGADVNAKDVYGWTPLHIAAASGHLEIVEVLLKAGADVNAKDWLGWTPLHLAASHGHLEIVEVLLKAGADVNAQDKSGKTPADLAARAGHQDIAEVLQKAA
notes: also called 2-in-1 DARPin18 in Format 1
scCD3εγ [9]
  EC50 (read off the curve): ~100 nM
scCD3εγ [10]
  EC50 (read off the curve): ~40 nM
scCD3εγ [11]
  shift in EC50 upon addition of 100 nM VEGF: ~3 fold
